The record followed here is patent US20230295324A1 (published 2023).

Assay [1] addresses T1, human OX40 on cells (CHO-K1/hu OX40) (human, UniProt P43489 29-277).
T1 construct: whole, on cells; Also used here for OX40 on the HEK293/OX40/NF-kb reporter cells and on human T cells in the functional assays; also called CHO-K1/OX40; human OX40 cells
T1 sequence (looked up): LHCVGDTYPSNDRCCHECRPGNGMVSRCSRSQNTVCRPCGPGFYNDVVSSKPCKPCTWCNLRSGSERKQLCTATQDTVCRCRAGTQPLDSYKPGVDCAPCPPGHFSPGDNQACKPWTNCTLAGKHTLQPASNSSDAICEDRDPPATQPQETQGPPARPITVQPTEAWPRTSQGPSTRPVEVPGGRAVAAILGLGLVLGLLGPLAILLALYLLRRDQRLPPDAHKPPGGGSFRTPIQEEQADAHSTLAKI
The assay can be described thus: FACS, CHO-K1/hu OX40 cells. The procedure:
This example is intended to investigate the in vitro binding activity of OX40×TAA bispecific antibodies obtained in Example 9 to human OX40. The antibody binding assay at the cellular level was performed using a CHO-K1 cell strain overexpressing human OX40 (CHO-K1/hu OX40). Briefly, CHO-K1/hu OX40 cells were digested, resuspended in an F12K complete medium, and washed with PBS, and the cell density was adjusted to 1×10⁶ cells/ml with PBS. The cells were seeded in a 96-well V-bottom plate (Corning, #3894) at 100 μL/well, followed by the addition of test antibodies diluted in a 3-fold gradient at concentrations that were 2 times the final concentrations at 100 μL/well. The cells were incubated at 4° C. for 1 h away from light. Thereafter, the cells in each well were rinsed twice with 100 μL of pre-cooled PBS, and centrifuged at 500 g at 4° C. for 5 min, and then the supernatant was discarded. […] The plate was incubated away from light at 4° C. for 30 min. The cells in each well were rinsed twice with 100 μL of pre-cooled PBS, and centrifuged at 500 g at 4° C. for 5 min, and then the supernatant was discarded. Finally, the cells in each well were resuspended in 200 μL of pre-cooled PBS, and the fluorescence signal values were read using NovoCyte flow cytometer (ACEA Biosciences).
In general terms: A flow cytometer gives signals particle by particle.

Assay [2] addresses T2, human PD-L1 on MDA-MB-231 cells (human, UniProt Q9NZQ7 19-290).
T2 construct: whole, on cells
The assay can be described thus: FACS, MDA-MB-231 cells (human PD-L1). The procedure: (§1) This example is intended to investigate the in vitro binding activity of OX40×TAA bispecific antibodies obtained in Example 9 to tumor-associated antigens (TAAs). […] Briefly, those cells were digested, resuspended in a complete medium, and washed with PBS, and the cell density was adjusted to 1×10⁶ cells/ml with PBS. The cells were seeded in a 96-well V-bottom plate (Corning, #3894) at 100 μL/well, and centrifuged, and then the supernatant was discarded. Then, the test antibodies diluted in a 3-fold gradient were added at 100 μL/well. The cells were incubated at 4° C. for 1 h away from light. Thereafter, the cells in each well were rinsed twice with 100 μL of pre-cooled PBS, and centrifuged at 500 g at 4° C. for 5 min, and then the supernatant was discarded. […] The plate was incubated away from light at 4° C. for 30 min. The cells in each well were rinsed twice with 100 μL of pre-cooled PBS, and centrifuged at 500 g at 4° C. for 5 min, and then the supernatant was discarded. Finally, the cells in each well were resuspended in 200 μL of pre-cooled PBS, and the fluorescence signal values were read using NovoCyte flow cytometer (ACEA Biosciences).

For assay [3], the target named is T3, human PSMA on LNCAP cells (human, UniProt Q04609 1-750).
T3 construct: whole, on cells
The assay is described as follows: FACS, LNCAP cells (human PSMA). The procedure: as §1

The target of assay [4] is T4, human OX40 protein (Acro biosystem, #OX0-H5224) (human, UniProt P43489 29-216).
T4 construct: Bought recombinant protein
T4 sequence (looked up): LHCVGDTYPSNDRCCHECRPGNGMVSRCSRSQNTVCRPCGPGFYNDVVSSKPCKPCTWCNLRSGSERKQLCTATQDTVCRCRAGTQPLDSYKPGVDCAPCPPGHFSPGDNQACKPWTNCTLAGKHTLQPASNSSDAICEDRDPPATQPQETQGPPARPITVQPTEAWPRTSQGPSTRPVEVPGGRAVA
The assay can be described thus: ELISA, coated human OX40 protein. The procedure: This example is intended to investigate the in vitro binding activity of the anti-OX40 HCAb monoclonal antibodies prepared in Example 1 to human and cynomolgus monkey OX40 proteins. The antibody binding assay at the protein level was performed using a human OX40 protein (Acro biosystem, #OX0-H5224) and a cynomolgus monkey OX40 protein (Novoprotein, #CB17). Briefly, a 384-well plate (PerkinElmer, #6007509) was coated with 1 μg/mL human OX40 protein and a cynomolgus monkey OX40 protein dissolved in PBS at 20 μL/well, and incubated at 4° C. overnight. The next day, the 384-well plate was washed three times with PBS containing 0.05% Tween (MEDICAGO, #09-9410-100), and blocked with PBS containing 2% milk (Bio-Rad, #170-6404) at 37° C. for 1 h. […] The plate was added with a stop buffer (BBI life sciences, #E661006-0200) at 20 μL/well, and read for OD₄₅₀₋₆₅₀ values using a plate reader (Molecular Devices, model: SpectraMax Plus). The values were analyzed with Graphad 8.0 and plotted.
(In an ELISA, binding on a coated surface is turned into a signal by an enzyme label.)

Assay [5] concerns the target T4, human OX40 protein (Acro biosystem, …). The assay is described as follows: ELISA, coated human OX40 protein. The source holds these as a separate data set.
Assay [6] concerns the target T1, human OX40 on cells (CHO-K1/hu OX40). The assay is described as follows: FACS, CHO-K1/hu OX40 cells. The procedure, abridged: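 Binding of anti-human OX40 HCAb antibodies measured by flow cytometry on CHO-K1 cells stably overexpressing human OX40. Cells incubated with 3-fold serially diluted antibodies 1 h at 4 °C in the dark, washed, then secondary staining 30 min at 4 °C; fluorescence read by FACS.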
This is another data set of the same source.

The target is the same in assay [7]. The assay can be described thus: FACS, blocking of biotin-human OX40L on CHO-K1/hu OX40 cells.
The target is the same in assay [8]. The assay is described as follows: cell-based or functional assay.
Assay [9] deals with T5, cynomolgus monkey OX40 protein (Novoprotein, #CB17) (cynomolgus monkey).
T5 construct: Bought recombinant protein; also called cyno OX40
The assay is described as follows: ELISA, coated cyno OX40 protein.

Read-outs that look alike come from different tables or passages of the source. Where only a bound is given, the exact number is not on record here.

T3 sequence (Q04609 whole entry): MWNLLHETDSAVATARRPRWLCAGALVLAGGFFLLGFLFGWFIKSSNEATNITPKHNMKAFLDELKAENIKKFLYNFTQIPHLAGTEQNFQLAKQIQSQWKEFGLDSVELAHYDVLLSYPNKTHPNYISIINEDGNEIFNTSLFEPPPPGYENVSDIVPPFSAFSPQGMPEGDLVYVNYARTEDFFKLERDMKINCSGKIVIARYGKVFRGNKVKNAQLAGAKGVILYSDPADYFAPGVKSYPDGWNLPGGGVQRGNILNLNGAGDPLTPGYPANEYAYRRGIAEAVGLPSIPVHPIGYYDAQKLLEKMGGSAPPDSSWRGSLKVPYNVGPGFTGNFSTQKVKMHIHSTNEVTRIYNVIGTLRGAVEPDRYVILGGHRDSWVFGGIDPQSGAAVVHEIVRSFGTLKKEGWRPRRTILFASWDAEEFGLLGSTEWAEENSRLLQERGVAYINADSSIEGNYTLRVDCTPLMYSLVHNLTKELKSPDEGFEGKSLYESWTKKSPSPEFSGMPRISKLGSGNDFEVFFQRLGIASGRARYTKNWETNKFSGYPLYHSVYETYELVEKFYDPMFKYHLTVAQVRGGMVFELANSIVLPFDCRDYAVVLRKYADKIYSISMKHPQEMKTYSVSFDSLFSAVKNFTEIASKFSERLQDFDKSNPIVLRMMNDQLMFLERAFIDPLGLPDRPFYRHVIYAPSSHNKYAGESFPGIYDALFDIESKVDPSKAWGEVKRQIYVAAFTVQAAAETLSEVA
T2 sequence (Q9NZQ7 19-290): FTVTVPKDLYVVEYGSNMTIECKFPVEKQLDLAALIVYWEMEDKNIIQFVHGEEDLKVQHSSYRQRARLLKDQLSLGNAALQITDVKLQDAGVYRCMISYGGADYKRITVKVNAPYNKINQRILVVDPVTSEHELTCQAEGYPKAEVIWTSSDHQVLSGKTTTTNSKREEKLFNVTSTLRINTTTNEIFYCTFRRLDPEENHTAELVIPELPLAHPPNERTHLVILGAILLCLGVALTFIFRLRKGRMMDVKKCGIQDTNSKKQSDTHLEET

B1: PR003789 (bispecific antibody, human IgG1, kappa, L234A L235A)
light: DIQMTQSPSTLSASVGDRVTVTCRASQSIYIWLAWYQQKPGKAPNLLIYKASSLETGVPSRFSGSGSGTEFTLTISSLQPDDFATYYCQQYYGSSRTFGQGTKVEIKRTVAAPSVFIFPPSDEQLKSGTASVVCLLNNFYPREAKVQWKVDNALQSGNSQESVTEQDSKDSTYSLSSTLTLSKADYEKHKVYACEVTHQGLSSPVTKSFNRGEC
heavy: EVQLVESGGGLVQPGGSLRLSCAASGFTFSSYWMSWVRQAPGKGLEWVANIKQEGSEKYYVDSVKGRFTISRDNAKNSLYLQMNSLRAEDTAVYYCARDRAVAGAFDIWGQGTMVTVSSASTKGPSVFPLAPSSKSTSGGTAALGCLVKDYFPEPVTVSWNSGALTSGVHTFPAVLQSSGLYSLSSVVTVPSSSLGTQTYICNVNHKPSNTKVDKKVEPKSCDKTHTCPPCPAPEAAGGPSVFLFPPKPKDTLMISRTPEVTCVVVDVSHEDPEVKFNWYVDGVEVHNAKTKPREEQYNSTYRVVSVLTVLHQDWLNGKEYKCKVSNKALGAPIEKTISKAKGQPREPQVYTLPPSREEMTKNQVSLTCLVKGFYPSDIAVEWESNGQPENNYKTTPPVLDSDGSFFLYSKLTVDKSRWQQGNVFSCSVMHEALHNHYTQKSLSLSPGAEPKSSDKTHTPPPPPEVQLLESGGGLVQPGGSLRLSCAASGFTFSSYAMSWVRQAPGKGLEWVSAISGRGGSTFYADSVRGRFTISRDNSKNTLYLQMNSLRAEDTAMYYCVDGTTGTTDVDYWGQGTLVTVSS
notes: IgG-VH tetravalent symmetric structure: PR000265 IgG (anti-PD-L1) with the VH of PR002067 at the C-terminus via linker H1_15; human IgG1 Fc (L234A, L235A, P329G); also called PD-L1xOX40 bispecific antibody
By EC50 is commonly meant the concentration giving half of the maximal effect. Consider B1, for which, in assay [1], a half-maximal response (EC50) required 3.98 nM and the “Maximum MFI” value is 287000 MFI. Moreover, a half-maximal response in assay [2] (EC50) required 1.04 nM.

B2: PR000265 (antibody, human IgG1, kappa, N297A, V domains shown)
VH: EVQLVESGGGLVQPGGSLRLSCAASGFTFSSYWMSWVRQAPGKGLEWVANIKQEGSEKYYVDSVKGRFTISRDNAKNSLYLQMNSLRAEDTAVYYCARDRAVAGAFDIWGQGTMVTVSS
VL: DIQMTQSPSTLSASVGDRVTVTCRASQSIYIWLAWYQQKPGKAPNLLIYKASSLETGVPSRFSGSGSGTEFTLTISSLQPDDFATYYCQQYYGSSRTFGQGTKVEIKR
notes: H2L2 parental antibody against PD-L1; also called anti-PD-L1 monoclonal antibody; H2L2 antibody
For B2, the EC50 in assay [2] was determined as 0.605 nM.

B3: PR000327 (antibody, V domains shown)
VH: QVQLVESGGGLVKPGESLRLSCAASGFTFSDYYMYWVRQAPGKGLEWVAIISDGGYYTYYSDIIKGRFTISRDNAKNSLYLQMNSLKAEDTAVYYCARGFPLLRHGAMDYWGQGTLVTVSS
VL: DIQMTQSPSSLSASVGDRVTITCKASQNVDTNVAWYQQKPGQAPKSLIYSASYRYSDVPSRFSGSASGTDFTLTISSVQSEDFATYYCQQYDSYPYTFGGGTKLEIK
In the case of B3, the EC50 in assay [3] stood at 3.02 nM.

B4: PR004284 (bispecific antibody, human IgG1, kappa, L234A L235A)
light: DIQMTQSPSSLSASIGDRVTITCRASQSINSYLNWYQQKPGKAPKLLIYTASSLLSGVPSRFSASGSWTDFSLTISSLQPEDFATYYCQQSFSTPYTFGQGTNLEIKRTVAAPSVFIFPPSDEQLKSGTASVVCLLNNFYPREAKVQWKVDNALQSGNSQESVTEQDSKDSTYSLSSTLTLSKADYEKHKVYACEVTHQGLSSPVTKSFNRGEC
heavy: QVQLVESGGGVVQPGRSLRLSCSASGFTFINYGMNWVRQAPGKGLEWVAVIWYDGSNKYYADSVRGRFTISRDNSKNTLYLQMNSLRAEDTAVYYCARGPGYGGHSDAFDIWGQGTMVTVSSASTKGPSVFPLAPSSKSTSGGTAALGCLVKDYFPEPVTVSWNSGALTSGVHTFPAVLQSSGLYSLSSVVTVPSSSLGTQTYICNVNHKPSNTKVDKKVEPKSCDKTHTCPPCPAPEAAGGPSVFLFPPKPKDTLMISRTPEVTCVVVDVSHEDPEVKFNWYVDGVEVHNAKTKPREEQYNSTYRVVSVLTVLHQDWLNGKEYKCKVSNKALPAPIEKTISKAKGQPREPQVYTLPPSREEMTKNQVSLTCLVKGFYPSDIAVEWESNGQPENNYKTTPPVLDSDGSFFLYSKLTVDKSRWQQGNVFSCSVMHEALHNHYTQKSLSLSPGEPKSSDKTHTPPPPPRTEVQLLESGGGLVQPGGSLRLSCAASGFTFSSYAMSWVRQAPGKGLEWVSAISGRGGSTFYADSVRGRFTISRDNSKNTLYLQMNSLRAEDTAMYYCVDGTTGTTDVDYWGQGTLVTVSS
notes: IgG-VH tetravalent symmetric structure: PR001331 IgG (anti-PSMA) with the VH of PR002067 via linker H1_15-RT; human IgG1 Fc (L234A, L235A); also called PSMAxOX40 bispecific antibody
As for B4, in assay [1], the response was half-maximal at 4.96 nM (EC50) and the “Maximum MFI” value stood at 287000 MFI. In addition, the midpoint of the response in assay [3], the EC50, lay at 6.7 nM.

B5: PR002055 (antibody, human IgG1, V domains shown)
VH: EVQLLESGGGLVQPGGSLRLSCAASGLTFSSYAMSWVRQAPGKGLEWISAISGGGGSTYYADSVRGRFTISRDNSKNTLYLQMNSLRAEDTAVYYCANGMTGSTDVDYWGQGTLVTVSS
notes: no light chain; also called anti-OX40 HCAb antibody
A word on the IC50: it is the concentration that inhibits the measured activity by half. As to B5, the 50% effective concentration (EC50) in assay [4] was below 0.05 nM. In addition, in assay [5], a half-maximal effect (EC50) was put at 0.0268 nM and the “Maximum OD” value is 1.41 OD. In addition, in [6], the EC50 was found to be 3.18 nM and the “Maximum MFI” value came to 2240 MFI. In assay [7], the IC50 was 59.9 nM and the “Maximum inhibition rate (%)” value turned out to be 19%. For the same molecule, in assay [8], the “EC50, HEK293/OX40/NF-kb luciferase reporter” value is 4.66 nM and the “Maximum fluorescence signal value, HEK293/OX40/NF-kb luciferase reporter” value turned out to be 141000 luminescence. In assay [9], the EC50 worked out at 0.0452 nM and the “Maximum OD” value is 1.74 OD.
